Assay results: PMC3973203 (Cell Death & Disease, 2014)
Each block holds one molecule with its values, some of them ahead of it.

Key:
[1] = molecular target: atypical protein kinase C ι (aPKCι) (Homo sapiens, UniProt P41743)
GST-PAR6 (Par6a, cds) = molecular target: T1, GST-PAR6 (Par6a, cds) (human, UniProt Q9NPB6 1-346); assay: pull-down
T1 sequence (looked up): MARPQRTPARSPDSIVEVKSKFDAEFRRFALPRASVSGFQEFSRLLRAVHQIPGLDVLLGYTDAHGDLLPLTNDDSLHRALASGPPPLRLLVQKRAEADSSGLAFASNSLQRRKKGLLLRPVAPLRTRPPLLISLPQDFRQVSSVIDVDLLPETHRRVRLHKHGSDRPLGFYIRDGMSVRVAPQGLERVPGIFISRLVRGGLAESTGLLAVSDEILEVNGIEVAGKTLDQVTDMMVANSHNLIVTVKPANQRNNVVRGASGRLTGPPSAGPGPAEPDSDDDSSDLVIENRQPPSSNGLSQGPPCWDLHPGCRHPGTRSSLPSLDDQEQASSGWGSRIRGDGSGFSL

Molecule: O=C(O)CC([S][Au])C(=O)O (stereo not drawn) [ATM, aurothiomalate]
IC50 [1]: 20.4 µM

mean binding ratio at 10 μM ATM (0 μM ATM = 100%) (GST-PAR6 (Par6a, cds)): 63.8%
mean binding ratio at 50 μM ATM (0 μM ATM = 100%) (GST-PAR6 (Par6a, cds)): 32.7%
B1: HIS-aPKCι, PB1 domain of human atypical protein kinase C ι (amino acids 1–113) (domain or fragment, UniProt P41743 1-113, looked up)
chain: MPTQRDSSTMSHTVAGGGSGDHSHQVRVKAYYRGDIMITHFEPSISFEGLCNEVRDMCSFDNEQLFTMKWIDEEGDPCTVSSQLELEEAFRLYELNKDSELLIHVFPCVPERP
